For the experiment, the target named is T1, cpSRP43-FL (Arabidopsis thaliana, UniProt O22265 57-373).
T1 sequence (looked up): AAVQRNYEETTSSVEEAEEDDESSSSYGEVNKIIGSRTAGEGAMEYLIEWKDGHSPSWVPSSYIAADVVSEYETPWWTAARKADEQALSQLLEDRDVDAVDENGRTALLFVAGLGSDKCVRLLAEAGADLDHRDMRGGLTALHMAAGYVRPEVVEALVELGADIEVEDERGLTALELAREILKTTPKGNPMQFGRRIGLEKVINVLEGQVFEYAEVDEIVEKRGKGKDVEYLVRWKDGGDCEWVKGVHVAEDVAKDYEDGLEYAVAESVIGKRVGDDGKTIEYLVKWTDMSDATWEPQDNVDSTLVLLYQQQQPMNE
Description: fluorescence polarisation.

The values below come from publication PMC8879858 (Nature plants, 2021).

Where no end group is shown, it is not given here. fluorescein = fluorescein label covalently attached to the C-terminal cysteine

Turning to QKQKAPPGTARRKRKAC(fluorescein) [fluorescein-labeled cpSRP54M peptide], the binding result was “binds”.
